The source of these data is patent publication CN1420129A (ZHONGXIN GUOJIAN PHARMACEUTICA, dated 2003).

What all share (assay): cell-based or functional assay
Assay [1] has as its target CD20 (on CD20+ B lymphocytes / human B lymphoma cell line DHL-4) (human) (UniProt P11836).
Assay [2] has the same target. The source holds these as a separate data set.
For assay [3], the target named is T1, CD20 (on CD20+ B lymphocytes / human B lymphoma cell line DHL-4) (human, UniProt P11836 1-297).
T1 sequence (looked up): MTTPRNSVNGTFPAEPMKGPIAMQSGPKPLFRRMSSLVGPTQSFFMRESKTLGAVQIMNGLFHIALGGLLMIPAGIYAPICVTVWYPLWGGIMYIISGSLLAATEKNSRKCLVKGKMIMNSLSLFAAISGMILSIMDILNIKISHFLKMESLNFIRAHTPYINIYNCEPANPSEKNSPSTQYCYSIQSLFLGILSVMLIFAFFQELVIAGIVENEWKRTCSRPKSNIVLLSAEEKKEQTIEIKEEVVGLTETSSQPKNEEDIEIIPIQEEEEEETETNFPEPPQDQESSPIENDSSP

Read-outs that look alike come from different tables or passages of the source.

On to Rituximab (antibody), for which, in assay [1], the 存活细胞% (DHL-4 CD20+ cells, cell count and MTT, day 5-7) at 1 μg/ml (% surviving cells) was found to be 66.7; the 存活细胞% (DHL-4 CD20+ cells, cell count and MTT, day 5-7) at 10 μg/ml (% surviving cells) was found to be 32.1; the 存活细胞% (DHL-4 CD20+ cells, cell count and MTT, day 5-7) at 100 μg/ml (% surviving cells) was 19.4. For the same molecule, in assay [2], the 存活细胞% (DHL-4 CD20+ cells, cell count and MTT, day 5-7) at 1 μg/ml (% surviving cells) amounted to 50.3; the 存活细胞% (DHL-4 CD20+ cells, cell count and MTT, day 5-7) at 10 μg/ml (% surviving cells) was found to be 12.6; the 存活细胞% (DHL-4 CD20+ cells, cell count and MTT, day 5-7) at 100 μg/ml (% surviving cells) stood at 29.4.

B1: 单克隆抗体7D3 (antibody, V domains shown)
VH: QAQLQQSGAELVRPGASVKMSCKASGYTFTRYNMHWVKQTPRQGLEWIGYIYPGNGDTNYNQKFKGKATLTVDKSSSTAYMQLSSLTSEDSAVYFCARRTYYSNSYWYFDVWGTGTTVTVSS
VL: QIVLTQSPAILSASPGEKVTMTCRASSSVSYMNWYQQKPGSSPKPWIYAPSNLASGVPARFSGSGSGTSYSLTISRVEAEDAATYYCQQWSNNPPTFGAGTKLELKR
As for B1, in assay [3], the “存活细胞% (DHL-4 CD20+ cells, cell count and MTT, day 5-7) at 1 μg/ml” value worked out at 99.6 % surviving cells; the “存活细胞% (DHL-4 CD20+ cells, cell count and MTT, day 5-7) at 10 μg/ml” value amounted to 46.5 % surviving cells; the “存活细胞% (DHL-4 CD20+ cells, cell count and MTT, day 5-7) at 100 μg/ml” value worked out at 56.7 % surviving cells.

B2: 嵌合单抗C7D3 (antibody, human IgG1, V domains shown)
VH: QAQLQQSGAELVRPGASVKMSCKASGYTFTRYNMHWVKQTPRQGLEWIGYIYPGNGDTNYNQKFKGKATLTVDKSSSTAYMQLSSLTSEDSAVYFCARRTYYSNSYWYFDVWGTGTTVTVSS
VL: QIVLTQSPAILSASPGEKVTMTCRASSSVSYMNWYQQKPGSSPKPWIYAPSNLASGVPARFSGSGSGTSYSLTISRVEAEDAATYYCQQWSNNPPTFGAGTKLELKR
As for B2, in assay [3], the “存活细胞% (DHL-4 CD20+ cells, cell count and MTT, day 5-7) at 1 μg/ml” value is 110 % surviving cells; the “存活细胞% (DHL-4 CD20+ cells, cell count and MTT, day 5-7) at 10 μg/ml” value is 27.3 % surviving cells; the “存活细胞% (DHL-4 CD20+ cells, cell count and MTT, day 5-7) at 100 μg/ml” value came to 39.4 % surviving cells.
